Test results reported in publication doi:10.1101/2023.08.14.552755.

Assays:
[1] = biological target: VpOmpM1 (OmpM1 from Veillonella parvula), full length, expressed in E. coli (Veillonella parvula); assay: cryo-EM structure
[2] = biological target: VpOmpM1 stalk region (residues 22-107), soluble construct (Veillonella parvula); assay: crystal structure

Substance	stoichiometry N [1]	stoichiometry N [2]
VpOmpM1 (OmpM1 from Veillonella parvula), full length, expressed in E. coli (natural protein)	3	–
VpOmpM1 stalk region (residues 22-107), soluble construct (domain or fragment)	–	3
